Target: T1, guanine nucleotide dissociation inhibitor (GDI) (yeast, UniProt P39958 1-451)
T1 construct: expressed as GST-PreSc-GDI; also called Gdi1; source: E. coli BL21 DE3 (Rosetta), purified (glutathione sepharose, cleaved from the beads with PreScission protease); not shown: GST, N-terminal, cleaved
T1 sequence (looked up): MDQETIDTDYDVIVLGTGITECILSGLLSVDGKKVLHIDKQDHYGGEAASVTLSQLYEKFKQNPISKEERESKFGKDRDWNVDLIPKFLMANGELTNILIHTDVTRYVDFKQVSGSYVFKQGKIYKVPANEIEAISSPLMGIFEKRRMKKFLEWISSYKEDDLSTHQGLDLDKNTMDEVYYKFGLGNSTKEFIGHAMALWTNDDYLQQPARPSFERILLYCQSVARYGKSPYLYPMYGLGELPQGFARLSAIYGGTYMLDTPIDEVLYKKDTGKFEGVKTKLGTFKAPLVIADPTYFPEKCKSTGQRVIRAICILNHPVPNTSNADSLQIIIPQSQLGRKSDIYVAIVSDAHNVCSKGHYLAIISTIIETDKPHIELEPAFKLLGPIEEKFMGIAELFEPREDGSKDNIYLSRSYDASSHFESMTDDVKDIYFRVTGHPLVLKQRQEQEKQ
Assay: SEC; after in vitro prenylation (Rab GTPase, GDI, His6-Mrs6, Bet4 His6-TEV-Bet2 at 10:9:1:1, 37°C, 1.5 h) and removal of His6-Mrs6 and Bet4 His6-TEV-Bet2 on Ni2+ resin, the supernatant was loaded on a Superdex200 increase column; prenylation buffer 50 mM HEPES-NaOH pH 7.4, 150 mM NaCl, 1.5 mM MgCl2, 1 mM DTT
Conditions: both partners purified

B1: prenylated Ypt7 (natural protein, yeast, UniProt P32939 1-208, looked up)
chain: MSSRKKNILKVIILGDSGVGKTSLMHRYVNDKYSQQYKATIGADFLTKEVTVDGDKVATMQVWDTAGQERFQSLGVAFYRGADCCVLVYDVTNASSFENIKSWRDEFLVHANVNSPETFPFVILGNKIDAEESKKIVSEKSAQELAKSLGDIPLFLTSAKNAINVDTAFEEIARSALQQNQADTEAFEDDYNDAINIRLDGENNSCSC
modifications: prenylated in vitro with geranylgeranyl pyrophosphate (C-terminal prenyl anchor; positions not stated)
notes: Ypt7, the Rab7-like GTPase of yeast; The methods list GST-TEV-Ypt7 (cleaved off the beads with TEV protease), Ypt7-His6 and, once, His6-TEV-Ypt7; I surmise that the prenylated Ypt7 came from GST-TEV-Ypt7, because it has a free C-terminus; also called Rab7-like Ypt7; Ypt7-GDP; source: E. coli BL21 DE3 (Rosetta), purified; preloaded with GDP and prenylated in vitro (Mrs6, Bet4-Bet2, geranylgeranyl …)
binding result: binds

— paper PMC10978497, “The GTPase activating protein Gyp7 regulates Rab7/Ypt7 activity on late endosomes” (The Journal of Cell Biology, 2024)
